Measurements published in paper PMC11623273.

Biological target: Fab fragment of neutralizing antibody HCV1
Sequence (heavy, as listed by the source, chain 1 of 2): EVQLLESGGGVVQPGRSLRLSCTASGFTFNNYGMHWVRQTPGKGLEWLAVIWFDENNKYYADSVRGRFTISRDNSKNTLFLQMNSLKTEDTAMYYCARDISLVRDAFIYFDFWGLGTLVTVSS
Sequence (light, as listed by the source, chain 2 of 2): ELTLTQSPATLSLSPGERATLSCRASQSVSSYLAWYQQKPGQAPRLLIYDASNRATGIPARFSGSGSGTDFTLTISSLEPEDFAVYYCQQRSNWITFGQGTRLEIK

Chain of soluble HCV E2 ectodomain (sE2) (domain or fragment) (Q99IB8 384-719): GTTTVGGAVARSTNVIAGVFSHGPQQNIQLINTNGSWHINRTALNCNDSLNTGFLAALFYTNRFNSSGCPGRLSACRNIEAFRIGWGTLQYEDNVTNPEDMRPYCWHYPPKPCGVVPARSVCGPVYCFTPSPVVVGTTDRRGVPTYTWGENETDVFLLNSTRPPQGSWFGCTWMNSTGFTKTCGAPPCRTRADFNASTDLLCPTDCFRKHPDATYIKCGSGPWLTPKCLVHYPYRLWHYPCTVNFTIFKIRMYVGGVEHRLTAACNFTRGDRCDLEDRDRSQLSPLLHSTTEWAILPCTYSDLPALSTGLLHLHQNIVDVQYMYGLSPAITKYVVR

## soluble HCV E2 ectodomain (sE2) (domain or fragment)
  Kd: 0.294 µM
  koff: 0.00435 s⁻¹
  kon: 14800 M⁻¹ s⁻¹
